Target: T1, M1-linked di-ubiquitin (UniProt P0CG48 1-76; P0CG48 1-76)
T1 construct: ubiquitin, distal (N-terminal) moiety, M1-G76, its G76 joined by a peptide bond to M1 of the next moiety; ubiquitin, proximal (C-terminal) moiety, M1-G76, with the free C-terminal carboxylate; Two ubiquitin units head to tail on one chain; also called linear di-Ub; linear (head-to-tail) di-Ub
Test: ITC; 298 K, MicroCal iTC200; linear di-Ub (1 mM) in the syringe, HOIL-1L NZF (100 uM) in the cell (several experiments at half of these); 20 mM HEPES pH 7.0, 50 mM sodium chloride, 1 mM TCEP; one set of sites model; three independent experiments
Conditions: both partners purified

B1: mouse HOIL-1L NZF domain (residues Pro192-Gln250) T207D (domain or fragment)
chain: GPLGSPEPVGWQCPGCTFINKPDRPGCEMCCRARPETYQIPASYQPDEEERARLAGEEEALRQYQQ
notes: HOIL-1L, mouse, NZF domain with tail, residues Pro192-Gln250, point mutant T207D; Point mutation made by PCR on the plasmid of m1; also called phosphomimetic HOIL-1L NZF; T207D HOIL-1L NZF; source: E. coli, autoinduction in N-5052 media, purified; not shown: GST, N-terminal, cleaved
**Q.** Which Kd does the source give for B1 here?
**A.** 10.3 µM
